# Experimental data published in patent US20030092037A1, “Elk1 phosphorylation related gene” (priority 2001, published 2003).
# Test system: MAP kinase cascade activation
# Assay: Reporter activity reflecting MAP kinase cascade activation, corrected using an internal control (Elk1-GAL4 luciferase reporter in 293-EBNA cells)
# Assay type: cell-based, human
# Details: for Dependence of corrected reporter activity on amount of expression plasmid: plasmid 12.5 ng, 25 ng, 50 ng and 100 ng; for Reporter activity corrected with internal control, as a factor of null vector (S/B value): 293-EBNA cells, 24 hours
# Description: (in the presence of 5% CO2). […] The method used for introduction was in accordance with the attached protocol. After culturing for 24 hours at 37° C., reporter activity (firefly luciferase acitivity), which reflects MAP kinase cascade activation, and reporter activity being the internal control (sea pansy luciferase) were measured using Picagene Dual (purchased from Toyo Ink Manufacturing) in accordance with the manufacturer's instructions.
# Luciferase activity was measured with Perkin Elmer's Wallac ARVOTMST 1420 MULTILABEL COUNTER.
# Reporter activity where an expression plasmid comprising the above gene was introduced, which reflects MAP kinase cascade activation corrected with internal control reporter activity, is shown in Table 1, which is expressed as a factor of the same reporter activity where a null vector was introduced (S/B value).
# [1] = 12.5 ng/well expression plasmid
Molecule,Dependence of corrected reporter activity on amount of expression plasmid,"Reporter activity corrected with internal control, as a factor of null vector (S/B value) (25 ng/well expression plasmid)","Reporter activity corrected with internal control, as a factor of null vector (S/B value) (50 ng/well expression plasmid)","Reporter activity corrected with internal control, as a factor of null vector (S/B value) (100 ng/well expression plasmid)","Reporter activity corrected with internal control, as a factor of null vector (S/B value) [1]"
"152 (protein, listed as Homo sapiens) MAPAGCCCCCCFWGGAVAAAGAARRVLLLLLLGVLSAGLRPGALATEHYSPLSLLKQELQHRQQQEAPAGGGGCSPQSGDWGDQYSAECGESSFLNFHDSDCEPKGSSPCDSLLSLNTEKILSQAKSIAEQKRFPFATDNDSTNEELAIAYVLIGSGLYDEAIRHFSTMLQEEPDLVSAIYGRGIAYGKKGLHDIKNAELALFELSRVITLEPDRPEVFEQRAEILSPLGRINEAVNDLTKAIQLQPSARLYRHRGTLYFISEDYATAHEDFQQSLELNKNQPIAMLYKGLTFFHRGLLKEAIESFKEALKQKVDFIDAYKSLGQAYRELGNFEAATESFQKALLLNQNHVQTLQLRGMMLYHHGSLQEALKNFKRCLQLEPYNEVCQYMKGLSHVAMGQFYEGIKAQTKVMLNDPLPGQKASPEYLKVKYLREYSRHLHAHLDTPLTEYNIDVDLPGSFKDHWAKNLPFLIEDYEEQPGLQPHIKDVLHQNFESYKPEVQELICVADRLGSLMQYETPGFLPNKRIHRAMGLAALEVMQAVQRTWTNSKVRMNGKTRLMQWRDMFDIAVKWRRIADPDQPVLWLDQMPARSLSRGFNNHINLIRGQVINMRYLEYFEKILHFIKDRILVYHGANNPKGLLEVREALEKVHKVEDLLPIMKQFNTKTKDGFTVNTKVPSLKDQGKEYDGFTITITGDKVGNILFSVETQTTEERTQLYHAEIDALYKDLTAKGKVLILSSEFGEADAVCNLILSLVYYFYNLMPLSRGSSVIAYSVIVGALMASGKEVAGKIPKGKLVDFEAMTAPGSEAFSKVAKSWMNLKSISPSYKTLPSVSETFPTLRSMIEVLNTDSSPRCLKKL",increases that were dependent on the amount of expression plasmid,,,,
"146 (protein, listed as Homo sapiens) MNHIVQTFSPVNSGQPPNYEMLKEEQEVAMLGAPHNPAPPTSTVIHIRSETSVPDHVVWSLFNTLFMNTCCLGFIAFAYSVKSRDRKMVGDVTGAQAYASTAKCLNIWALILGIFMTILLVIIPVLVVQAQR",increases that were dependent on the amount of expression plasmid,3.5,5.6,8.8,
"148 (protein, listed as Homo sapiens) MNHIVQTFSPVNSGQPPNYEMLKEEQEVAMLGAPHNPAPPTSTVIHIRSETSVPDHVVWSLFNTLFMNTCCLGFIAFAYSVKSRDRKMVGDVTGAQAYASTAKCLNIWALILGIFMTILLIIIPVLVVQAQR",increases that were dependent on the amount of expression plasmid,1.6,3.4,5.0,
"150 (protein, listed as Homo sapiens) MSSGKSARYNRFSGGPSNLPTPDVTTGTRMETTFGPAFSAVTTITKADGTSTYKQHCRTPSSSSTLAYSPRDEEDSMPPISTPRRSDSAISVRSLHSESSMSLRSTFSLPEEEEEPEPLVFAEQPSVKLCCQLCCSVFKDPVITTCGHTFCRRCALKSEKCPVDNVKLTVVVNNIAVAEQIGELFIHCRHGCRVAGSGKPPIFEVDPRGCPFTIKLSARKDHEGSCDYRPVRCPNNPSCPPLLRMNLEAHLKECEHIKCPHSKYGCTFIGNQDTYETHLETCRFEGLKEFLQQTDDRFHEMHVALAQKDQEIAFLRSMLGKLSEKIDQLEKSLELKFDVLDENQSKLSEDLMEFRRDASMLNDELSHINARLNMGILGSYDPQQIFKCKGTFVGHQGPVWCLCVYSMGDLLFSGSSDKTIKVWDTCTTYKCQKTLEGHDGIVLALCIQGCKLYSGSADCTIIVWDIQNLQKVNTIRAHDNPVCTLVSSHNVLFSGSLKAIKVWDIVGTELKLKKELTGLNHWVRALVAAQSYLYSGSYQTIKIWDIRTLDCIHVLQTSGGSVYSIAVTNHHIVCGTYENLIHVWDIESKEQVRTLTGHVGTVYALAVISTPDQTKVFSASYDRSLRVWSMDNMICTQTLLRHQGSVTALAVSRGRLFSGAVDSTVKVWTC",increases that were dependent on the amount of expression plasmid,2.8,1.7,,6.7
"132 (protein, listed as Mus musculus) MAGRTMQAARCPTDELSLSNCAVVNEKDFQSGQHVMVRTSPNHKHIFTLRTHPSVVPGCIAFSLPQRKWAGLSIGQDIEVALYSFDKAKQCIGTMTIEIDFLQKKNIDSNPYDTDKMAAEFIQQFNNQAFSVGQQLVFSFNDKLFGLLVKDIEAMDPSILKGEPASGKRQKIEVGLVVGNSQVAFEKAENSSLNLIGKAKTKENRQSIINPDWNFEKMGIGGLDKGFSDIFRRAFASRVFPPEIVEQMGCKHVRGILLYGPPGCGKTLLARQIGKMLNAREPKVVNGPEILNKYVGESEANIRKLFADAEEEQRRLGANSGLHIIIFDEIDAICKQRGSMAGSTGVHDTVVNQLLSKIDGVEQLNNILVIGMTNRPDLIDEALLRPGRLEVKMEIGLPDEKGRLQILHIHTARMRGHQLLSADVDIKELAVETKNFSGAELEGLVRAAQSTAMNRHIKASTKVEVDMEKAESLQVTRGDFLASLENDIKPAFGTNQEDYASYIMNGIIKWGDPVTRVLDDGELLVQQTKNSDRTPLVSVLLEGPPHSGKTALAAKIAEESNFPFIKICSPDKMIGFSETAKCQAMKKIFDDAYKSQLSCVVVDDIERLLDYVPIGPRFSNLVLQALLVLLKKAPPQGRKLLIIGTTSRKDVLQEMEMLNAFSTTIHVPNIATGEQLLEALELLGNFKDKERTTIAQQVKGKKVWIGIKKLLMLIEMSLQMDPEYRVRKFLALMREEGASPLDFD",increases that were dependent on the amount of expression plasmid,10.1,16.6,,5.6
"154 (protein, listed as Homo sapiens) MAPAGCCCCCCFWGGAVAAAGAARRVLLLLLLGVLSARLRPGALATEHYSPLSLLKQELQHRQQQEAPAGGGGCSPQSGDWGDQYSAECGESSFLNFHDSDCEPKGSSPCDSLLSLNTEKILSQAKSIAEQKRFPFATDNDSTNEELAIAYVLIGSGLYDEAIRHFSTMLQILSPLGRINEAVNDLTKAIQLQPSARLYRHRGTLYFISEDYATAHEDFQQSLELNKNQPIAMLYKGLTFFHRGLLKEAIESFKEALKQKVDFIDAYKSLGQAYRELGNFEAATESFQKALLLNQNHVQTLQLRGMMLYHHGSLQEALKNFKRCLQLEPYNEVCQYMKGLSHVAMGQFYEGIKAQTKVMLNDPLPGQKASPEYLKVKYLREYSRYLHAHLDTPLTEYNIDVDLPGSFKDHWAKNLPFLIEDYEEQPGLQPHIKDVLHQNFESYKPEVQELICVADRLGSLMQYETPGFLPNKRIHRAMGLAALEVMQAVQRTWTNSKVRMNGKTRLMQWRDMFDIAVKWRRIADPDQPVLWLDQMPARSLSRGFNNHINLIRGQVINMRYLEYFEKILHFIKDRILVYHGANNPKGLLEVREALEKVHKVEDLLPIMKFNTKTKDGFTVNTKVPSLKDQGKEYDGFTITITGDKVGNILFSVETQTTEERTQLYHAEIDALYKDLTAKGKVLILSSEFGEADAVCNLILSLVYYFYNLMPLSRGSSVIAYSVIVGALMASGKEVAGKIPKGKLVDFEAMTAPGSEAFSKVAKSWMNLKSISPSYKTLPSVSETFPTLRSMIEVLNTDSSPRCLKKL",increases that were dependent on the amount of expression plasmid,,,,
"122 (protein, listed as Mus musculus) MAPAGCGCGCSGSLGAAVVRPLLLLLGALACVRATEHYSPLSLLKQELQHRQQQEAPAGGGCPQSGDWADQYPECESSFLNFHESDCELRGSAPCDSLLSLNTEKILSQAKSIAEQKRFPFATDNDSTNEELAIAYVLVGSGLYDEAIRHFSTMLQEAIEAFKEALKQKVDFIDAYKSLGQAYRELGNFDAATESFQKALLLNQNHVQTQQLRGMMLYHHGSLQEALKNFKRCLQLEPYNELCQYMKGLSHVAMGQFYEGIKAQTKVMLNDPLPGQKASPEYLRVKYLREYSRYLHAHLDTPLTEYNIDSDLPGSFKDHWAKNLPFLIDGYEEQPGLQPHIRDVLHQNFEGYKPEVQELICVADRLGSLMQYETPGFLPNKRIHRAMGLAALEVMQAVHRTWTNSKVRMNGKTRLLQWRDMFDIAVKWRRIADPDQPVLWLDQMPAPSLSRGFNNHINLIRGQVINMRYLEYFEKILHFIKDRILVYHGANNPKGLLEVREALEKVHKVEDLLPIMKQFNTKTKDGFTVNTKVPSLKDQGKEYDGFTITITGDKVGNILFSVETQTTEERTQLYHAEIDALYKDLTAKGKVLTLSAEFGEADAVCNLILSLVYYFYNLMPLSRGSSVIAYSVIVGALMASGKEVAGKIPKGKLVDFEAMTAPGSEAFSKIAKSWMNLKSISPSYKTLPSVSETFPTLRSMIEVLNTDSTPRCLKKL",increases that were dependent on the amount of expression plasmid,2.9,6.8,,1.8
